The results in this text go back to PMC5127646.

In general, Kd refers to the equilibrium constant for the complex coming apart.

The target in the assay is RBM5 OCRE domain (residues 451-511), wild type (human) (UniProt P52756). As to the kind of experiment: ITC; Sm tail constructs with wild type OCRE; SmN constructs (1 mM) titrated into OCRE (100 μM); ITC200, 24°C, 20 mM sodium phosphate pH 6.5, 50 mM NaCl; duplicates.
Sequence of RBM5 OCRE domain (residues 451-511), wild type (human) (P52756 other isoform, or with tags, fused parts or gaps): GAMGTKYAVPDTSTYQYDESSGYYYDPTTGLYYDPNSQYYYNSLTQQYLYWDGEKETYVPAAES
Consider “SmB 167-231 4P→4A (from UniProt P14678-2 167-231) (domain or fragment)”, for which the Kd worked out at 20 µM.

On to “SmB 167-231 R1/R2→E1/E2 (from UniProt P14678-2 167-231) (domain or fragment)”, for which the Kd came out at 159 µM.

The substance “SmN 167-240 R1/R2→E1/E2 (from UniProt P63162 167-240) (domain or fragment)” showed a Kd of 150 µM.

As for “SmN 167-240 R1→E1 (from UniProt P63162 167-240) (domain or fragment)”, the Kd came to 66.5 µM.

Turning to “SmN 167-240 R2→E2 (from UniProt P63162 167-240) (domain or fragment)”, the Kd was 74 µM.
